Results as given in US20040138134A1.
Where no end group is shown, it is not given here.

biological target: natriuretic peptide receptor on C3H10T1/2 cells; assay: cell-based or functional assay

| Binder | % relative binding (cGMP, Biotrak EIA, peptide at 10^-6 M) [%] |
| --- | --- |
| CFGLKLDRIGGMSGLGC [CNP variant SEQ ID NO:55] | 27.8 |
| CFGLKLDQIGSMSGLGC [CNP variant SEQ ID NO:50] | 12 |
| CFGLKLDRIGSMSGLGC (not fully specified (bridges); ends and bridges not checked) [CNP 5-22 (17-mer, cyclic domain of CNP)] | 100 |
| CFGLKLDRIGSMSGMGC [CNP variant SEQ ID NO:62] | 51.3 |
| CFGLKLDRIGSHSGLGC [CNP variant SEQ ID NO:66] | 66.2 |
| CFGLKLDRIGSMSKLGC [CNP variant SEQ ID NO:60] | 49.2 |
| CFGLKLDRIGNMSGLGC [CNP variant SEQ ID NO:57] | 27.4 |
| CFGLKLDRIGSMSGGGC [CNP variant SEQ ID NO:64] | -10.1 |
| CFGLKLDRIGTMSGLGC [CNP variant SEQ ID NO:56] | 74.1 |
| CFGLKLDRLGSMSGLGC [CNP variant SEQ ID NO:51] | 14.2 |
| CFGLKLDRIGSMSGAGC [CNP variant SEQ ID NO:63] | -1.11 |
| CFGLKLDRIGSMSGQGC [CNP variant SEQ ID NO:61] | -3.47 |
| CFGLKLDRIGSMSLLGC [CNP variant SEQ ID NO:59] | 15.3 |
| CFGLKLDRIGSSSGLGC [CNP variant SEQ ID NO:68] | 62.5 |
| CFGLKLDRIGAMSGLGC [CNP variant SEQ ID NO:54] | 54.5 |
| CFGLKLDRVGSMSGLGC [CNP variant SEQ ID NO:52] | 27.1 |
| CFGLKLDRIGSGSGLGC [CNP variant SEQ ID NO:69] | 62.1 |
| CFGLKLDRIGSMSALGC [CNP variant SEQ ID NO:58] | 53.6 |
| CFGLKLDRIGSKSGLGC [CNP variant SEQ ID NO:67] | 66.9 |
| CFGLKLDRTGSMSGLGC [CNP variant SEQ ID NO:53] | -1.95 |
| CFGLKLDRIGSWSGLGC [CNP variant SEQ ID NO:65] | 66.5 |

biological target: natriuretic peptide receptor on C3H10T1/2 cells; assay: cell-based or functional assay; remark: another data set of the same source

| Binder | % relative binding (cGMP, Biotrak EIA, peptide at 10^-6 M) [%] |
| --- | --- |
| CHFGLKLDRIGSMAC [CNP variant SEQ ID NO:12] | 21.7 |
| CFGLKLARIGSMSGLGC [CNP variant SEQ ID NO:7] | 49.1 |
| CFGLKLDRIGSMSGLGC (not fully specified (bridges); ends and bridges not checked) [CNP 5-22 (17-mer, cyclic domain of CNP)] | 127 |
| CFGLKLDRIGSQC [CNP variant SEQ ID NO:18] | 11.8 |
| CAGLKLDRIGSMSGLGC [CNP variant SEQ ID NO:6] | 43.8 |
| CFGLKLDRIGSMC [CNP variant SEQ ID NO:16] | 17.3 |
| CFGLKLDAIGSMSGLGC [CNP variant SEQ ID NO:8] | 18.4 |
| CFGLKLDRIGSMSC [CNP variant SEQ ID NO:14] | 29.9 |
| CFGLKLDRIGC [CNP variant SEQ ID NO:22] | 4.2 |
| CFGLKLDRIGSC [CNP variant SEQ ID NO:21] | 22.7 |
| CHFGLKLDRIGAQSC [CNP variant SEQ ID NO:13] | 26.5 |
| CFGLKLDRIGAQSC [CNP variant SEQ ID NO:15] | 20.6 |
| GLSKGCFGLKLDRIGSMSGLGC [CNP 1-22 (native human CNP, 22-mer)] | 100 |
| CHFGLKLDRIGSMSC [CNP variant SEQ ID NO:11] | 25.9 |
| CFGLKLDRIGAQC [CNP variant SEQ ID NO:19] | 3.8 |
| CHFGLKLDRIC [CNP variant SEQ ID NO:23] | 3.8 |
| CFGLKLDRIGAMC (ends and bridges not checked; cysteine pairing not given here) [CNP variant SEQ ID NO:17] | 3.4 |
| CFGLKLDRAGSMSGLGC [CNP variant SEQ ID NO:9] | 11.5 |
| CHFGLKLDRIGSC [CNP variant SEQ ID NO:20] | 11.9 |
